Test results reported in patent publication US20110009342A1, “USES OF PDCD5 POLYPEPTIDE FOR TUMOR CHEMOTHERAPY AND ORGAN PROTECTION” (priority 2008, published 2011).

Assays:
K562 cells = test: FITC/Annexin-V apoptosis by flow cytometry, IDR; format: cell-based
Experimental: Methods: Cell staining with FITC/Annexin-V and cell apoptosis in vitro detection by flow cytometry: K562 cells (ATCC) were maintained in RPMI 1640 (Life Technologies, USA) supplemented with 10% FBS (Hyclone, USA), and were plated in 24-well culture dishes to a density of 2×10^5 cells/mL. rhPDCD5 protein was added with a final concentration of 7.5 μg/mL, 15 μg/mL and 30 μg/mL, respectively, in each well. Chemotherapeutic drug IDR was then added with a final concentration of 56 ng/mL and RPMI 1640 with 10% FBS was added to make the system to 1 mL. After 24 hours of co-culture, the cells were stained with FITC/Annexin-V (Baosai company) and apoptosis was detected by flow cytometry.

[1] = system: SiHa cervical cancer cells; settings: Zhang et al. 2004; cited from earlier work
7721 liver cancer cells = settings: Li et al. 2000; cited from earlier work
Raji cells [2] = test: colony-forming ability (CFA) assay, ADM; format: cell-based
Experimental: Analysis for colony forming ability (CFA): U937 cells (ATCC), in the logarithmic phase, were maintained in RPMI 1640 medium supplemented with 20% FBS and 0.4% methyl cellulose (Sigma) by the semi-solid colony culture method and were adjusted to a density of 5×10^3 cells/mL. The cells were divided into control groups and test groups, and each group was assayed in triple wells. U937 cells in the control groups were treated with DNR alone, with the final concentrations of 0 ng/mL and 0.5 ng/mL. U937 cells in the test group were treated with DNR of various concentrations combined with PDCD5 of various concentrations, while the final concentrations of PDCD5 were 0 μg/mL, 0.625 μg/mL, 1.25 μg/mL, and 2.5 μg/mL, respectively. After incubation for 14 days in a 37° C., 5% CO2 and saturatedly humidified incubator, a colony with more than 30 cells was counted by an inverted microscope in order to analyze colony forming ability of each group. […]
Methods: Colony-forming ability (CFA) assay: Raji cells of logarithmic growth phase were cultured, and the method was the same as that in Example 8. […] The numbers of colonies (containing≧30 cells) were counted by inverted microscope to observe the CFA, which is indicated by the ratio of average number of colony formation in each of the test groups versus that of the untreated control group.

U937 cells [3] = test: cell apoptosis assay, DNR; format: cell-based
Experimental: Methods: Cell apoptosis assay: U937 cells (ATCC), in the logarithmic phase, were maintained in RPMI 1640 (Life Technologies, USA) supplemented with 10% FBS (Hyclone, USA), and were adjusted to a density of 2×10^5 cells/mL and then were divided into control groups and test groups. U937 cells in the control groups were treated with DNR (Pharmacia Italia SPA) alone, with the final concentrations of 0 μg/mL, 0.05 μg/mL, and 0.1 μg/mL. U937 cells in the test groups were treated with DNR of various concentrations combined with PDCD5 of various concentrations, with the final concentrations of PDCD5 being 0 μg/mL, 2.5 μg/mL, and 5 μg/mL, respectively. After being incubated for 24 hours in a 37° C., 5% CO2 and saturatedly humidified incubator, the cells were stained with Annexin-V/PI (Biosea) and then were analyzed for apoptosis with a FACSCalibur flow cytometer.

HL60 cells = test: colony-forming ability (CFA) assay, As2O3; format: cell-based
Experimental: (§1) Analysis for colony forming ability (CFA): U937 cells (ATCC), in the logarithmic phase, were maintained in RPMI 1640 medium supplemented with 20% FBS and 0.4% methyl cellulose (Sigma) by the semi-solid colony culture method and were adjusted to a density of 5×10^3 cells/mL. The cells were divided into control groups and test groups, and each group was assayed in triple wells. U937 cells in the control groups were treated with DNR alone, with the final concentrations of 0 ng/mL and 0.5 ng/mL. U937 cells in the test group were treated with DNR of various concentrations combined with PDCD5 of various concentrations, while the final concentrations of PDCD5 were 0 μg/mL, 0.625 μg/mL, 1.25 μg/mL, and 2.5 μg/mL, respectively. After incubation for 14 days in a 37° C., 5% CO2 and saturatedly humidified incubator, a colony with more than 30 cells was counted by an inverted microscope in order to analyze colony forming ability of each group. The colony forming ability was shown as the ratio of average number of colony in each group versus that of the untreated control group in which the final concentrations of DNR and PDCD5 were 0 μg/mL.
Colony-forming ability (CFA) assay: HL60 cells of logarithmic growth phase were cultured by a method identical to that in Example 8. The cells were divided into control and test groups (each with 3 wells): In the control groups, the HL60 cells were treated only with arsenic trioxide and the final concentration of which were 0 μg/mL and 0.25 μg/mL, respectively; in the test groups, the HL60 cells were treated with different concentrations of As2O3, which was combined with different concentrations of PDCD5, the final concentrations of PDCD5 were 0 μg/mL, 5 μg/mL, 10 μg/mL and 20 μg/mL, respectively. Cultures were incubated in a 37° C., 5% CO2 and saturatedly humidified incubator for 14 days. The numbers of colonies (containing≧30 cells) were counted on day 14 by inverted microscope. The colony-forming ability was observed as the ratio of the number of average colony formation in the test groups versus that in the untreated control group. […]

Raji cells [4] = test: FITC/Annexin-V apoptosis by flow cytometry, DNR; format: cell-based
Experimental: Methods: Raji cells were cultured in RPMI 1640 medium (Life Technologies, USA) supplemented with 10% Fetal Bovine Serum (FBS, Hyclone, USA). The cells were seeded in 24-well plates with 2×10^5 cells per well. rhPDCD5 was added to each well and the final concentrations were 0 μg/mL, 2.5 μg/mL and 5 μg/mL, respectively. Subsequently, DNR was added and the final concentrations were 0 μg/mL and 0.05 μg/mL, and RPMI 1640 medium supplemented with 10% FBS was added to ensure the system was brought to 1 mL. After 24 h incubation, the cells were stained with FITC/Annexin-V (Beijing Biosea Biotechnology Co., Ltd.) and the apoptosis was detected by flow cytometry.

U937 cells [5] = test: colony forming ability (CFA), DNR; format: cell-based
Experimental: as §1

HL-60 cells = test: cell apoptosis assay, As2O3; format: cell-based
Experimental: Methods: Cell apoptosis assay: HL-60 cells (ATCC) of logarithmic growth phase were cultured and the density of cells was 2×10^5/mL. The cells were divided into control and test groups. In the control groups, the HL60 cells were treated only with As2O3 (Harbin Yida Pharmaceutical Co., Ltd.), and the final concentration of As2O3 were 0 μg/mL, 0.25 μg/mL and 0.5 μg/mL, respectively. In the test groups, the HL60 cells were treated with As2O3 in the various concentrations combined with PDCD5 in various concentrations, the final concentrations of PDCD5 being 0 μg/mL, 5 μg/mL, 10 μg/mL and 20 μg/mL, respectively. The cells were incubated in a 37° C., 5% CO2 and saturatedly humidified incubator for 24 h, and subsequently were stained with Annexin-V/PI and detected for apoptosis by flow cytometer.

B1: rhPDCD5: recombinant human programmed cell death 5 protein (SEQ ID NO:1) expressed in E. coli and purified (protein, listed as Homo sapiens)
chain: MADEELEALRRQRLAELQAKHGDPGDAAQQEAKHREAEMRNSILAQVLDQSARARLSNLALVKPEKTKAVENYLIQMARYGQLSEKVSEQGLIEILKKVSQQTEKTTTVKFNRRKVMDSDEDDDY
K562 cells
  promotion of apoptosis induced by IDR: could significantly promote apoptosis
[1]
  effect on apoptosis induced by IFNγ in vitro: had a sensitized effect on apoptosis of SiHa cervical cancer cells
7721 liver cancer cells
  effect on apoptosis induced by hydroxy camptothecin (HCPT): could accelerate apoptosis of 7721 liver cancer cells
Raji cells [2]
  enhancement of inhibition of CFA by ADM: can significantly enhance the inhibition of CFA by ADM
U937 cells [3]
  enhancement of DNR-induced apoptosis: can significantly enhance DNR-induced apoptosis
HL60 cells
  enhancement of CFA inhibition by As2O3: can significantly enhance the CFA inhibition by As2O3
HL60 cells; rhPDCD5 alone
  effect on the CFA of HL60: no significant affect
Raji cells [4]
  enhancement of DNR-induced apoptosis: can significantly enhance DNR-induced apoptosis
U937 cells [5]
  enhancement of inhibition of CFA by DNR: can significantly enhance the inhibition of CFA by DNR
U937 cells [5]; rhPDCD5 alone
  effect on the CFA of U937 cells: did not have significant effect
HL-60 cells
  enhancement of induced apoptosis: can significantly enhance As2O3-induced apoptosis
